In patent US20190248863A1:

Experiments:
Assay in all cases: cell-based or functional assay
human RXFP2 (human) = human RXFP2 (human) (UniProt Q8WXD0)
human RXFP4 (human) = human RXFP4 (human) (UniProt Q8TDU9)
human RXFP3 (human) = human RXFP3 (human) (UniProt Q9NSD7)
Chain of human RXFP3 (human) (Q9NSD7 whole entry): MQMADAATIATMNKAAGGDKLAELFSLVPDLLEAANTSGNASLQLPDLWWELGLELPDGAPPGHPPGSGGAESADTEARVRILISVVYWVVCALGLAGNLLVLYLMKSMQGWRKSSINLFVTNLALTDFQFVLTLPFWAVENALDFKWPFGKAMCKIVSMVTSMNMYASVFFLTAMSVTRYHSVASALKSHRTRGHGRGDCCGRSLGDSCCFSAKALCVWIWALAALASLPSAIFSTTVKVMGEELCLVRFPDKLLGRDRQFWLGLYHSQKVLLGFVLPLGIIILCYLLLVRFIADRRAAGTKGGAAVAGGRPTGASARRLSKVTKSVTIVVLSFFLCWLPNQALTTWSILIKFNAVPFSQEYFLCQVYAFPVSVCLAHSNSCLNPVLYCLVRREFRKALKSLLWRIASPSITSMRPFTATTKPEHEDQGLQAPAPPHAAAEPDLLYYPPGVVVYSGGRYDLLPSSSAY

Chain of human RXFP4 (human) (Q8TDU9 whole entry): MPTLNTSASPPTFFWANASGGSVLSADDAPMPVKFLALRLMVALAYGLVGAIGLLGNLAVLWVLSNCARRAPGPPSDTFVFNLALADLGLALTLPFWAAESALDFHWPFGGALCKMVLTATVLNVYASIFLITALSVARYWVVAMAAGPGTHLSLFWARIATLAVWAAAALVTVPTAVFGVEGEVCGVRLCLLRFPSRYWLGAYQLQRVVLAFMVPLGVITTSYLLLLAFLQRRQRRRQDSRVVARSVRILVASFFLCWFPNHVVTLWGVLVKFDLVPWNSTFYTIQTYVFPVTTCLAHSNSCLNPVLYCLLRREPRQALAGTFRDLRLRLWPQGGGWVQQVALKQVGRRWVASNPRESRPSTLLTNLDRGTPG
Chain of human RXFP2 (human) (Q8WXD0 whole entry): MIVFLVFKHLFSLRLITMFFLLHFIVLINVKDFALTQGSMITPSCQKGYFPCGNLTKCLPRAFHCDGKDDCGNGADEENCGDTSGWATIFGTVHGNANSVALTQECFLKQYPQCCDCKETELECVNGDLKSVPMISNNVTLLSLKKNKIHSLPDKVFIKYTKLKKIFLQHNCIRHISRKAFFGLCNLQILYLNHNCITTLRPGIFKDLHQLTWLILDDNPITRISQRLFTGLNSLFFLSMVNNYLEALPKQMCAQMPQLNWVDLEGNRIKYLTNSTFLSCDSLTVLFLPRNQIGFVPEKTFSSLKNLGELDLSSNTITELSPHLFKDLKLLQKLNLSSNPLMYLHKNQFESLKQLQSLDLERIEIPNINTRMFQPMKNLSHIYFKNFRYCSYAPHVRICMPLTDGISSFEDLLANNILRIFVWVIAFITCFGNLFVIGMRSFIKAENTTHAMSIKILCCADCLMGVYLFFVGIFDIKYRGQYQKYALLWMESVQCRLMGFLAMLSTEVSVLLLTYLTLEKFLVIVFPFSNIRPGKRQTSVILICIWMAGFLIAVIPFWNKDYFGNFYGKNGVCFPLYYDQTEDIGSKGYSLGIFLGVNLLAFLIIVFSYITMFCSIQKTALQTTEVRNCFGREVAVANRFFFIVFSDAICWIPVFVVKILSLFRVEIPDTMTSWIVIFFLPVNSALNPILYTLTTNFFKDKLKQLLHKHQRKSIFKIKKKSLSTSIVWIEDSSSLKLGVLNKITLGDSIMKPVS

insulin like 3 protein-INSL3 (from UniProt P51460 106-131; P51460 21-55) (ligand)
cAMP Assay EC50 (nM), human RXFP2/CHO-K1 cells (human RXFP2 (human)): 0.46 nM

recombinant human relaxin 3 (from UniProt Q8WXF3 119-142; Q8WXF3 26-52) (ligand)
cAMP Assay EC50 (nM), inhibition of forskolin-induced cAMP, human RXFP4/CHO-K1 cells (human RXFP4 (human)): 2.8 nM
maximal inhibition of forskolin-induced cAMP (partial agonist activity), human RXFP4/CHO-K1 cells (human RXFP4 (human)): 40%
cAMP Assay EC50 (nM), inhibition of forskolin-induced cAMP, human RXFP3/CHO-K1 cells (human RXFP3 (human)): 0.6 nM
